The values below come from US20140154252A1 (EMERGENT PRODUCT DEVELOPMENT SEATTLE, published 2014).

One may read the EC50 (read off the curve) as the concentration needed to bring the measured effect to its halfway point. High values mean weaker potency, low ones greater potency.

In assay [1] the target is T1, CD28 presented on CHO cells (UniProt P10747 19-220, limits assumed).
T1 construct: whole, on cells; also called CD28 CHO; CD28-expressing CHO cells
The experiment in a line: flow cytometry, lower graph taken as panel B of the legend = CD28 CHO cells; FITC goat anti-human IgG [lower graph]. Here is the method:
(§1) Seeded plates containing the proteins were incubated on ice for one hour. Subsequently, the wells were washed once with 200 μl 1% FBS in PBS. Goat anti-human antibody labeled with FITC (Fc Sp) at 1:100 was then added to each well, and the plates were again incubated on ice for one hour. The plates were then washed once with 200 μl 1% FBS in PBS and the cells were re-suspended in 200 μl 1% FBS and analyzed by FACS.
(§2) To assess the binding properties of the anti-CD28 peptide 2E12 VHVL, CD28-expressing CHO cells were plated by seeding in individual wells of a culture plate. […] The 2E12IgGvHvL SMIP purified protein was added to individual seeded wells, again using a two-fold dilution scheme, i.e., from 20 μg/ml down to […]. One well received no protein to provide a background control. The plates were then incubated on ice for one hour, washed once with 200 μl 1% FBS in PBS, and goat anti-human antibody labeled with FITC (Fc Sp) at 1:100 was added to each well. The plates were again incubated on ice for one hour and subsequently washed once with 200 μl 1% FBS in PBS. Following re-suspension of the cells in 200 μl 1% FBS, FACS analysis was performed.
In general terms: In flow cytometry, cells or beads pass a laser one at a time.

Assay [2] deals with T2, CD20 (human, UniProt P11836 1-297).
T2 construct: whole, on cells; 2H7 is called murine anti-human CD20; also called CD20 presented on WIL-2S cells; CD20 on Ramos, BJAB, SU-DHL-6 and DoHH2 B cells
T2 sequence (looked up): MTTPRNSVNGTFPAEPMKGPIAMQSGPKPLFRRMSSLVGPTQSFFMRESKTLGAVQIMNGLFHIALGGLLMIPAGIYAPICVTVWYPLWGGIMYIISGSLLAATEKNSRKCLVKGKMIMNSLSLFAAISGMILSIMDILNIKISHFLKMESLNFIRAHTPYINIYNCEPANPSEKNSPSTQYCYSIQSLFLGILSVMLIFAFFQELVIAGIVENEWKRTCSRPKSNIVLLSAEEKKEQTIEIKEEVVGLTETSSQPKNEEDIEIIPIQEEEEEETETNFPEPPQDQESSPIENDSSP
The experiment in a line: flow cytometry, upper graph taken as panel A of the legend = WIL-2S cells (CD20); FITC goat anti-human IgG [upper graph]. The method, then:
as §1, §2

The next assay addresses T3, CD28mIgG (UniProt P10747 19-152).
T3 construct: Bought reagent; the construct is not described; also called CD28Ig (Ancell); CD28 fused to mouse antibody; not shown: mouse Ig part of the bought fusion; not described
The assay is described as follows: sandwich flow cytometry: fusion protein titrated on WIL-2S cells (held by CD20), then CD28mIgG, then FITC anti-mouse.

Assay [3] concerns the target T2, CD20. The assay is described as follows: flow cytometry on WIL2-S cells (CD20), protein A purified protein at 0.72 ug/ml, FITC goat anti-human IgG. Here is the method: “L1-L6” refers to the 2H7-sss-hIgG-Lx-2e12 molecules where […] represents the L1-L6 linkers and the 2e12 V regions in the orientation of VL-VH. All the molecules were tested at a concentration of 0.72 μg/ml, and the binding detected using FITC conjugated goat anti-human IgG at 1:100.

B1: 2H7-sss-hIgG P238S/P331S-H6-2e12 VHVL (bispecific antibody)
chain: QIVLSQSPAILSASPGEKVTMTCRASSSVSYMHWYQQKPGSSPKPWIYAPSNLASGVPARFSGSGSGTSYSLTISRVEAEDAATYYCQQWSFNPPTFGAGTKLELKDGGGSGGGGSGGGGSSQAYLQQSGAESVRPGASVKMSCKASGYTFTSYNMHWVKQTPRQGLEWIGAIYPGNGDTSYNQKFKGKATLTVDKSSSTAYMQLSSLTSEDSAVYFCARVVYYSNSYWYFDVWGTGTTVTVSEPKSSDKTHTSPPSPAPELLGGSSVFLFPPKPKDTLMISRTPEVTCVVVDVSHEDPEVKFNWYVDGVEVHNAKTKPREEQYNSTYRVVSVLTVLHQDWLNGKEYKCKVSNKALPASIEKTISKAKGQPREPQVYTLPPSRDELTKNQVSLTCLVKGFYPSDIAVEWESNGQPENNYKTTPPVLDSDGSFFLYSKLTVDKSRWQQGNVFSCSVMHEALHNHYTQKSLSLSPGKGGGGSGGGGSGGGGSGNSQVQLKESGPGLVAPSQSLSITCTVSGFSLTGYGVNWVRQPPGKGLEWLGMIWGDGSTDYNSALKSRLSITKDNSKSQVFLKMNSLQTDDTARYYCARDGYSNFHYYVMDYWGQGTSVTVSSGGGGSGGGGSGGGGSGGGGSDIVLTQSPASLAVSLGQRATISCRASESVEYYVTSLMQWYQQKPGQPPKLLISAASNVESGVPARFSGSGSGTDFSLNIHPVEEDDIAMYFCQQSRKVPWTFGGGTKLEIKR
notes: Assembled from modules as m11; The preparation held a share of cleaved, SMIP-sized molecules; also called 2H7-sss-hIgG-H6-2e12
Take B1: the “EC50 (read off the curve)” value in assay [1] is approximately 0.8 µg/mL; with CD20 [2], approximately 1 µg/mL; with CD28mIgG, approximately 0.3 µg/mL.

B2: 2H7-sss-hIgG P238S/P331S-H3-2e12 VHVL (bispecific antibody)
chain: QIVLSQSPAILSASPGEKVTMTCRASSSVSYMHWYQQKPGSSPKPWIYAPSNLASGVPARFSGSGSGTSYSLTISRVEAEDAATYYCQQWSFNPPTFGAGTKLELKDGGGSGGGGSGGGGSSQAYLQQSGAESVRPGASVKMSCKASGYTFTSYNMHWVKQTPRQGLEWIGAIYPGNGDTSYNQKFKGKATLTVDKSSSTAYMQLSSLTSEDSAVYFCARVVYYSNSYWYFDVWGTGTTVTVSEPKSSDKTHTSPPSPAPELLGGSSVFLFPPKPKDTLMISRTPEVTCVVVDVSHEDPEVKFNWYVDGVEVHNAKTKPREEQYNSTYRVVSVLTVLHQDWLNGKEYKCKVSNKALPASIEKTISKAKGQPREPQVYTLPPSRDELTKNQVSLTCLVKGFYPSDIAVEWESNGQPENNYKTTPPVLDSDGSFFLYSKLTVDKSRWQQGNVFSCSVMHEALHNHYTQKSLSLSPGKNYGGGGSGNSQVQLKESGPGLVAPSQSLSITCTVSGFSLTGYGVNWVRQPPGKGLEWLGMIWGDGSTDYNSALKSRLSITKDNSKSQVFLKMNSLQTDDTARYYCARDGYSNFHYYVMDYWGQGTSVTVSSGGGGSGGGGSGGGGSGGGGSDIVLTQSPASLAVSLGQRATISCRASESVEYYVTSLMQWYQQKPGQPPKLLISAASNVESGVPARFSGSGSGTDFSLNIHPVEEDDIAMYFCQQSRKVPWTFGGGTKLEIKR
notes: Assembled from modules as m11; also called 2H7-sss-hIgG-H3-2e12 HL
On to B2, for which the “EC50 (read off the curve)” value in assay [1] was approximately 0.8 µg/mL; with CD20 [2], approximately 1 µg/mL; with CD28mIgG, approximately 0.4 µg/mL.

B3: 2H7-sss-hIgG-L4-2e12 (H4 linker, 2e12 VL-VH) (bispecific antibody)
chain (part 1 of 2): QIVLSQSPAILSASPGEKVTMTCRASSSVSYMHWYQQKPGSSPKPWIYAPSNLASGVPARFSGSGSGTSYSLTISRVEAEDAATYYCQQWSFNPPTFGAGTKLELKDGGGSGGGGSGGGGSSQAYLQQSGAESVRPGASVKMSCKASGYTFTSYNMHWVKQTPRQGLEWIGAIYPGNGDTSYNQKFKGKATLTVDKSSSTAYMQLSSLTSEDSAVYFCARVVYYSNSYWYFDVWGTGTTVTVSEPKSSDKTHTSPPSP
chain (part 2 of 2): GGGGSGGGGSGNSDIVLTQSPASLAVSLGQRATISCRASESVEYYVTSLMQWYQQKPGQPPKLLISAASNVESGVPARFSGSGSGTDFSLNIHPVEEDDIAMYFCQQSRKVPWTFGGGTKLEIKRGGGGSGGGGSGGGGSQVQLKESGPGLVAPSQSLSITCTVSGFSLTGYGVNWVRQPPGKGLEWLGMIWGDGSTDYNSALKSRLSITKDNSKSQVFLKMNSLQTDDTARYYCARDGYSNFHYYVMDYWGQGTSVTVSS
notes: Assembled from modules as m10; not shown: human IgG1 CH2-CH3
Turning to B3, the binding result with CD20 [3] was “binds”.

B4: 2H7-sss-hIgG-L1-2e12 (H1 linker, 2e12 VL-VH) (bispecific antibody)
chain (part 1 of 2): QIVLSQSPAILSASPGEKVTMTCRASSSVSYMHWYQQKPGSSPKPWIYAPSNLASGVPARFSGSGSGTSYSLTISRVEAEDAATYYCQQWSFNPPTFGAGTKLELKDGGGSGGGGSGGGGSSQAYLQQSGAESVRPGASVKMSCKASGYTFTSYNMHWVKQTPRQGLEWIGAIYPGNGDTSYNQKFKGKATLTVDKSSSTAYMQLSSLTSEDSAVYFCARVVYYSNSYWYFDVWGTGTTVTVSEPKSSDKTHTSPPSP
chain (part 2 of 2): NSDIVLTQSPASLAVSLGQRATISCRASESVEYYVTSLMQWYQQKPGQPPKLLISAASNVESGVPARFSGSGSGTDFSLNIHPVEEDDIAMYFCQQSRKVPWTFGGGTKLEIKRGGGGSGGGGSGGGGSQVQLKESGPGLVAPSQSLSITCTVSGFSLTGYGVNWVRQPPGKGLEWLGMIWGDGSTDYNSALKSRLSITKDNSKSQVFLKMNSLQTDDTARYYCARDGYSNFHYYVMDYWGQGTSVTVSS
notes: as for B3
Take B4: the binding result with CD20 [3] was “binds”.

B5: 2H7-sss-hIgG-L2-2e12 (H2 linker, 2e12 VL-VH) (bispecific antibody)
chain (part 1 of 2): QIVLSQSPAILSASPGEKVTMTCRASSSVSYMHWYQQKPGSSPKPWIYAPSNLASGVPARFSGSGSGTSYSLTISRVEAEDAATYYCQQWSFNPPTFGAGTKLELKDGGGSGGGGSGGGGSSQAYLQQSGAESVRPGASVKMSCKASGYTFTSYNMHWVKQTPRQGLEWIGAIYPGNGDTSYNQKFKGKATLTVDKSSSTAYMQLSSLTSEDSAVYFCARVVYYSNSYWYFDVWGTGTTVTVSEPKSSDKTHTSPPSP
chain (part 2 of 2): GGGGSGNSDIVLTQSPASLAVSLGQRATISCRASESVEYYVTSLMQWYQQKPGQPPKLLISAASNVESGVPARFSGSGSGTDFSLNIHPVEEDDIAMYFCQQSRKVPWTFGGGTKLEIKRGGGGSGGGGSGGGGSQVQLKESGPGLVAPSQSLSITCTVSGFSLTGYGVNWVRQPPGKGLEWLGMIWGDGSTDYNSALKSRLSITKDNSKSQVFLKMNSLQTDDTARYYCARDGYSNFHYYVMDYWGQGTSVTVSS
notes: as for B3
Regarding B5, the binding result with CD20 [3] is “binds”.

B6: 2H7-sss-hIgG-L3-2e12 (H3 linker, 2e12 VL-VH) (bispecific antibody)
chain (part 1 of 2): QIVLSQSPAILSASPGEKVTMTCRASSSVSYMHWYQQKPGSSPKPWIYAPSNLASGVPARFSGSGSGTSYSLTISRVEAEDAATYYCQQWSFNPPTFGAGTKLELKDGGGSGGGGSGGGGSSQAYLQQSGAESVRPGASVKMSCKASGYTFTSYNMHWVKQTPRQGLEWIGAIYPGNGDTSYNQKFKGKATLTVDKSSSTAYMQLSSLTSEDSAVYFCARVVYYSNSYWYFDVWGTGTTVTVSEPKSSDKTHTSPPSP
chain (part 2 of 2): NYGGGGSGNSDIVLTQSPASLAVSLGQRATISCRASESVEYYVTSLMQWYQQKPGQPPKLLISAASNVESGVPARFSGSGSGTDFSLNIHPVEEDDIAMYFCQQSRKVPWTFGGGTKLEIKRGGGGSGGGGSGGGGSQVQLKESGPGLVAPSQSLSITCTVSGFSLTGYGVNWVRQPPGKGLEWLGMIWGDGSTDYNSALKSRLSITKDNSKSQVFLKMNSLQTDDTARYYCARDGYSNFHYYVMDYWGQGTSVTVSS
notes: as for B3
With B6, the binding result with CD20 [3] is “binds”.

B7: 2H7-sss-hIgG-H7-2e12 HL (bispecific antibody)
chain: QIVLSQSPAILSASPGEKVTMTCRASSSVSYMHWYQQKPGSSPKPWIYAPSNLASGVPARFSGSGSGTSYSLTISRVEAEDAATYYCQQWSFNPPTFGAGTKLELKDGGGSGGGGSGGGGSSQAYLQQSGAESVRPGASVKMSCKASGYTFTSYNMHWVKQTPRQGLEWIGAIYPGNGDTSYNQKFKGKATLTVDKSSSTAYMQLSSLTSEDSAVYFCARVVYYSNSYWYFDVWGTGTTVTVSEPKSSDKTHTSPPSPAPELLGGSSVFLFPPKPKDTLMISRTPEVTCVVVDVSHEDPEVKFNWYVDGVEVHNAKTKPREEQYNSTYRVVSVLTVLHQDWLNGKEYKCKVSNKALPASIEKTISKAKGQPREPQVYTLPPSRDELTKNQVSLTCLVKGFYPSDIAVEWESNGQPENNYKTTPPVLDSDGSFFLYSKLTVDKSRWQQGNVFSCSVMHEALHNHYTQKSLSLSPGKGCPPCPNSQVQLKESGPGLVAPSQSLSITCTVSGFSLTGYGVNWVRQPPGKGLEWLGMIWGDGSTDYNSALKSRLSITKDNSKSQVFLKMNSLQTDDTARYYCARDGYSNFHYYVMDYWGQGTSVTVSSGGGGSGGGGSGGGGSGGGGSDIVLTQSPASLAVSLGQRATISCRASESVEYYVTSLMQWYQQKPGQPPKLLISAASNVESGVPARFSGSGSGTDFSLNIHPVEEDDIAMYFCQQSRKVPWTFGGGTKLEIKR
notes: Assembled from modules as m11; also called 2H7-sss-IgG-H7-2e12-HL
With B7, the results for the “EC50 (read off the curve)” value (in assay [1]; in the assay with CD20 [2]; with CD28mIgG) were approximately 0.5 µg/mL, approximately 1 µg/mL and approximately 0.3 µg/mL, respectively.
